Kd and IC50 data for 8 sequences are collected here from the Immune Epitope Database (IEDB).

Test [1] deals with HLA-A*02:01. Nature of the test: IEDB peptide-MHC binding, purified MHC/competitive/fluorescence; filed as Kd, often an IC50 or EC50 that approximates it; ≥ and ≤ were set here for values at or beyond the usual limits of such assays.
Another test deals with HLA-A*02:03. The test is described as above.
The target of another test is HLA-A*02:11. The description is as above.
Another test addresses HLA-A*02:12. The test is described as above.
Another test has as its target HLA-A*02:16. The description is as above.
The next test deals with HLA-A*02:19. The test is described as above.
In a further test the target is HLA-A*03:01. Described as above.
The target in a further test is HLA-A*23:01. The test is described as above.
In a further test the target is HLA-A*24:03. The description is as above.
Another test deals with HLA-A*26:01. The test is described as above.
The target in the next test is HLA-A*29:02. The test is described as above.
The next test has as its target HLA-A*68:02. The test is described as above.
In the next test the target is HLA-A*69:01. The description is as above.
A further test addresses HLA-B*15:01. The description is as above.
The target of a further test is HLA-B*15:17. The test is described as above.
The target in a further test is HLA-B*18:01. Described as above.
The target in a further test is HLA-B*27:03. The test is described as above.
A further test has as its target HLA-B*39:01. The description is as above.
A further test deals with HLA-B*46:01. Described as above.
The target in a further test is HLA-B*51:01. Described as above.
A further test concerns the target HLA-B*57:01. The test is described as above.
The next test deals with HLA-A*01:01. Nature of the test: IEDB peptide-MHC binding, purified MHC/competitive/fluorescence; ≥ and ≤ were set here for values at or beyond the usual limits of such assays.
In the next test the target is HLA-A*11:01. The description is as above. As to conditions: source organism: Vaccinia virus.
The next test concerns the target HLA-A*31:01. Kind of test: IEDB peptide-MHC binding, purified MHC/competitive/fluorescence; filed as Kd, often an IC50 or EC50 that approximates it; ≥ and ≤ were set here for values at or beyond the usual limits of such assays. The settings on record: source organism: Entamoeba histolytica HM-1:IMSS.
The target of test [2] is HLA-A*02:01. Nature of the test: IEDB peptide-MHC binding, purified MHC/competitive/fluorescence; ≥ and ≤ were set here for values at or beyond the usual limits of such assays. The settings on record: source organism: Sudan ebolavirus.
[3] abbreviates: source organism: Bacillus cereus G9241.
[4] abbreviates: source organism: Listeria welshimeri serovar 6b str. SLCC5334.
[5] abbreviates: source organism: Giardia lamblia ATCC 50803.
The mark [6] stands for this setting: source organism: Shigella boydii CDC 3083-94.
[7] abbreviates: source organism: Entamoeba histolytica HM-1:IMSS.
[8] abbreviates: source organism: Influenza A virus (A/red knot/Delaware/2561/1987(H10N5)).

A word on the Kd: it is the concentration at which binding is half-saturated. A low value points to a tighter complex. For the sequence DEEAINLFH, the Kd with HLA-A*02:01 [1] (setting [3]), in the test with HLA-A*02:03 (setting [3]), with HLA-A*02:11 (setting [3]), with HLA-A*02:12 (setting [3]), with HLA-A*02:16 (setting [3]) and with HLA-A*02:19 (setting [3]) was no less than 20 µM in each case. Besides, the Kd with HLA-A*03:01 (setting [3]), with HLA-A*23:01 (setting [3]), with HLA-A*24:03 (setting [3]), with HLA-A*26:01 (setting [3]), with HLA-A*29:02 (setting [3]) and in the test with HLA-A*68:02 (setting [3]) was no less than 20 µM throughout. Also, the Kd with HLA-A*69:01 (setting [3]) is no less than 20 µM; with HLA-B*15:01 (setting [3]) it was no less than 20 µM; with HLA-B*15:17 (setting [3]), no less than 20 µM; with HLA-B*18:01 (setting [3]) it was 0.692 µM; in the test with HLA-B*27:03 (setting [3]) it was no less than 20 µM; with HLA-B*39:01 (setting [3]), no less than 20 µM. For the same sequence, the Kd in the test with HLA-B*46:01 (setting [3]), in the test with HLA-B*51:01 (setting [3]) and with HLA-B*57:01 (setting [3]) was no less than 20 µM in each case.

As for ELYENKPDV, the Kd was 0.515 µM with HLA-A*02:01 [1] (setting [4]); no less than 20 µM with HLA-A*02:12 (setting [4]); 0.303 µM with HLA-A*02:19 (setting [4]); no less than 20 µM with HLA-A*03:01 (setting [4]); no less than 20 µM with HLA-A*23:01 (setting [4]); no less than 20 µM with HLA-A*24:03 (setting [4]). Also, the Kd with HLA-A*26:01 (setting [4]), with HLA-A*29:02 (setting [4]), with HLA-B*15:01 (setting [4]), with HLA-B*18:01 (setting [4]), with HLA-B*27:03 (setting [4]) and with HLA-B*39:01 (setting [4]) was no less than 20 µM in each case. In addition, the Kd in the test with HLA-B*46:01 (setting [4]), with HLA-B*51:01 (setting [4]) and with HLA-B*57:01 (setting [4]) was no less than 20 µM throughout.

The term IC50 denotes the point on the concentration scale where inhibition reaches its midpoint. Take GTEKEFLRY: the concentration for half-maximal inhibition (IC50) with HLA-A*01:01 (source organism: Vaccinia virus) stood at 6.64 µM; with HLA-A*11:01, 11.5 µM.

As for LLDDGWAGE, the Kd in the test with HLA-A*02:01 [1] (setting [5]) was no less than 20 µM; in the test with HLA-A*02:03 (setting [5]), no less than 20 µM; with HLA-A*02:11 (setting [5]), no less than 20 µM; with HLA-A*02:12 (setting [5]), 6 µM; with HLA-A*02:19 (setting [5]), no less than 20 µM; with HLA-A*03:01 (setting [5]) it was no less than 20 µM. The Kd in the test with HLA-A*23:01 (setting [5]), with HLA-A*24:03 (setting [5]), in the test with HLA-A*26:01 (setting [5]), in the test with HLA-A*29:02 (setting [5]), with HLA-A*68:02 (setting [5]) and in the test with HLA-A*69:01 (setting [5]) was no less than 20 µM throughout. Besides, the Kd with HLA-B*15:01 (setting [5]), with HLA-B*15:17 (setting [5]), with HLA-B*18:01 (setting [5]), in the test with HLA-B*27:03 (setting [5]), with HLA-B*39:01 (setting [5]) and in the test with HLA-B*46:01 (setting [5]) was no less than 20 µM throughout. Besides, the Kd with HLA-B*51:01 (setting [5]) and with HLA-B*57:01 (setting [5]) was no less than 20 µM each time.

Regarding MAMTGLPQA, the Kd with HLA-A*02:01 [1] (setting [6]) is 0.0008 µM; in the test with HLA-A*02:19 (setting [6]), 0.0003 µM; with HLA-A*03:01 (setting [6]) it was no less than 20 µM; in the test with HLA-A*23:01 (setting [6]) it was no less than 20 µM; with HLA-A*24:03 (setting [6]), no less than 20 µM; with HLA-A*26:01 (setting [6]), no less than 20 µM. Besides, the Kd in the test with HLA-A*29:02 (setting [6]), in the test with HLA-B*15:01 (setting [6]), with HLA-B*15:17 (setting [6]), in the test with HLA-B*18:01 (setting [6]), with HLA-B*27:03 (setting [6]) and with HLA-B*39:01 (setting [6]) was no less than 20 µM each time. Moreover, the Kd in the test with HLA-B*46:01 (setting [6]) and in the test with HLA-B*57:01 (setting [6]) was no less than 20 µM throughout.

As to RTFDRFFEE, the Kd in the test with HLA-A*02:01 [1] (setting [7]), with HLA-A*02:03 (setting [7]), with HLA-A*02:11 (setting [7]), in the test with HLA-A*02:12 (setting [7]), with HLA-A*02:16 (setting [7]) and in the test with HLA-A*02:19 (setting [7]) was no less than 20 µM throughout. In addition, the Kd in the test with HLA-A*03:01 (setting [7]) was no less than 20 µM; with HLA-A*23:01 (setting [7]), no less than 20 µM; in the test with HLA-A*24:03 (setting [7]), no less than 20 µM; with HLA-A*26:01 (setting [7]), no less than 20 µM; with HLA-A*29:02 (setting [7]), no less than 20 µM; in the test with HLA-A*31:01 it was 0.318 µM. The Kd with HLA-A*68:02 (setting [7]), with HLA-A*69:01 (setting [7]), with HLA-B*15:01 (setting [7]), with HLA-B*18:01 (setting [7]), with HLA-B*27:03 (setting [7]) and with HLA-B*39:01 (setting [7]) was no less than 20 µM each time. Also, the Kd with HLA-B*46:01 (setting [7]), in the test with HLA-B*51:01 (setting [7]) and in the test with HLA-B*57:01 (setting [7]) was no less than 20 µM each time.

For the sequence VMTDGPANK, the equilibrium dissociation constant (Kd) with HLA-A*02:01 [1] (setting [8]) is no less than 20 µM; with HLA-A*02:03 (setting [8]), no less than 20 µM; with HLA-A*02:11 (setting [8]), 0.199 µM; in the test with HLA-A*02:12 (setting [8]) it was no less than 20 µM; with HLA-A*02:19 (setting [8]), no less than 20 µM; with HLA-A*23:01 (setting [8]), no less than 20 µM. Also, the Kd with HLA-A*24:03 (setting [8]), in the test with HLA-A*26:01 (setting [8]), with HLA-A*29:02 (setting [8]), in the test with HLA-B*15:01 (setting [8]), with HLA-B*15:17 (setting [8]) and with HLA-B*18:01 (setting [8]) was no less than 20 µM in each case. For the same sequence, the Kd with HLA-B*27:03 (setting [8]), with HLA-B*39:01 (setting [8]), with HLA-B*46:01 (setting [8]), in the test with HLA-B*51:01 (setting [8]) and in the test with HLA-B*57:01 (setting [8]) was no less than 20 µM in each case.

VTEIDQLVC: the IC50 with HLA-A*01:01 (source organism: Sudan ebolavirus) was 34.2 µM; with HLA-A*02:01 [2], no less than 322 µM.
